Experimental findings from patent US20250388704A1 (Xencor, published 2025) are described below.

Broadly, the EC50 (read off the curve) is the concentration giving half of the maximal effect. A low value points to greater potency. For orientation: Kd means the equilibrium constant for the complex coming apart.

Experiment [1] addresses T1, human PSMA on the surface of prostate cancer cell lines (C42B / C42B-NLR, 22Rv1 / 22Rv1-NLR, PSMA-transfected … (human, UniProt Q04609 1-750)).
T1 construct: whole, on cells; also called Prostate Specific Membrane Antigen
Kind of experiment: flow cytometry on C42B-NLR (PSMA hi) cells, 30 min at 37 degrees, detection with anti-human-Ig-FITC. In general terms: In flow cytometry, cells or beads pass a laser one at a time.

In experiment [2] the target is T1, human PSMA on the surface of prostate …. The experiment in a line: binding to C4-2B (C42B, PSMA^hi) cells, MFI against concentration, least squares fit.
Experiment [3] addresses T2, CD28 antigen used for the affinity determinations (human, UniProt P10747 19-152, limits assumed).
T2 construct: Octet/BLI is described only for the bivalent mAbs
The experiment in a line: CD28 binding affinity of the scFv arm (monovalent, scFv in 1+1 Fab-scFv-Fc bsAb, FIG. 20); method not stated.

B1: PSMA x CD28 bsAb with A11 PSMA binding domain and 1A7_H1_L1.71 CD28 binding domain (Platform X) (bispecific antibody)
heavy: QVQLQESGGDVVQPGRSLRLSCAASGFSFSGYGLHWVRQAPGRGLEWVTLISYDGSNKYYADSVKGRFTISRDNSKNTLYLQMNSLRAEDTAVYYCAKTTVSDPYYYGMDVWGQGTTVTVSSASTKGPSVFPLAPSSKSTSGGTAALGCLVKDYFPEPVTVSWNSGALTSGVHTFPAVLQSSGLYSLSSVVTVPSSSLGTQTYICNVNHKPSDTKVDKKVEPKSCDKTHTCPPCPAPPVAGPSVFLFPPKPKDTLMISRTPEVTCVVVDVKHEDPEVKFNWYVDGVEVHNAKTKPREEEYNSTYRVVSVLTVLHQDWLNGKEYKCKVSNKALPAPIEKTISKAKGQPREPQVYTLPPSREEMTKNQVSLTCDVSGFYPSDIAVEWESDGQPENNYKTTPPVLDSDGSFFLYSKLTVDKSRWEQGDVFSCSVMHEALHNHYTQKSLSLSPGK
scFv-Fc: not shown
light: SYELTQPPSVSVAPGQTARITCGGNNIGSKSVHWYQQKPGQAPVLVVYDDSDRPSGIPERFSGTNSGNTATLTISRAEAGDEADYYCQVWDSSSDHVVFGGGTKLTVLGQPKAAPSVTLFPPSSEELQANKATLVCLISDFYPGAVTVAWKADSSPVKAGVETTTPSKQSNNKYAASSYLSLTPEQWKSHRSYSCQVTHEGSTVEKTVAPTECS
Turning to B1, the binding result in experiment [1] is recorded as “binds”.

B2: XENP38938 PSMA (F07) x CD28 (180nM) (bispecific antibody)
heavy: not shown
scFv-Fc: not shown
light: SYELTQPPSVSVAPGQTARITCGGNNIGSKSVHWYQQKPGQAPVLVVYDDSDRPSGIPERFSGSNSGNTATLTISRVEAGDEADYYCQVWDSSTDHVVFGGGTKLTVLGQPKAAPSVTLFPPSSEELQANKATLVCLISDFYPGAVTVAWKADSSPVKAGVETTTPSKQSNNKYAASSYLSLTPEQWKSHRSYSCQVTHEGSTVEKTVAPTECS
notes: copies: 1 + 1 + 1
Turning to B2, the binding result in experiment [1] was “binds”.

B3: XENP39234 PSMA (A10v2) x CD28 (37 nM) (bispecific antibody)
heavy: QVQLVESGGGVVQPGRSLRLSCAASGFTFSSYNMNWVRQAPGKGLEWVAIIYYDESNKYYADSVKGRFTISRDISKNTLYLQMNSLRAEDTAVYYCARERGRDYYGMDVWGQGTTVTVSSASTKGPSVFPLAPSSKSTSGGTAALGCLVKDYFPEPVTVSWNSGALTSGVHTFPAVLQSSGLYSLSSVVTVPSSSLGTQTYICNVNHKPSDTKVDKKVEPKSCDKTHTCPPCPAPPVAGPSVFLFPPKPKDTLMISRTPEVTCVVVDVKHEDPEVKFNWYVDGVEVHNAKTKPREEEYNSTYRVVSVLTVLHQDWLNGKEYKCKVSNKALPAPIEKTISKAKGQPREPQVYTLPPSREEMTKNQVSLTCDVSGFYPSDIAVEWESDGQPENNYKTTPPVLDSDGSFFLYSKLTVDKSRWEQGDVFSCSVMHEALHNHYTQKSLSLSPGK
scFv-Fc: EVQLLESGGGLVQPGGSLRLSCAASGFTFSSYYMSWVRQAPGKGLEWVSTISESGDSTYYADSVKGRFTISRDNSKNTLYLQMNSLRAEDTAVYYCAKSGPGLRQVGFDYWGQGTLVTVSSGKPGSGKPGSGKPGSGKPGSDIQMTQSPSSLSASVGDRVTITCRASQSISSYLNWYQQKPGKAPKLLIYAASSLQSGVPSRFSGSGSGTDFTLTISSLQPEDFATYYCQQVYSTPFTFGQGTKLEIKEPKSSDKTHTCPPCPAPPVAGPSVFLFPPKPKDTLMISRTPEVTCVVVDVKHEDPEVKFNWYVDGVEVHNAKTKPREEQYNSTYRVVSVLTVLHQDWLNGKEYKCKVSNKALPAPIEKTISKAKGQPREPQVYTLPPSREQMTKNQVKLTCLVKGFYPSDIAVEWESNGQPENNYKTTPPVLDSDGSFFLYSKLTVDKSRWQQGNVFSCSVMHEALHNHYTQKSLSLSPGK
light: SYELMQPPSVSVSPGQTARITCSGDALPKQYAYWYQQKPGQAPVLVIYKDSERPSGIPVRFSGSSSGTTVTLTITGVQAEDEADYYCQSADSSGTYVFGTGTKVTVLGQPKAAPSVTLFPPSSEELQANKATLVCLISDFYPGAVTVAWKADSSPVKAGVETTTPSKQSNNKYAASSYLSLTPEQWKSHRSYSCQVTHEGSTVEKTVAPTECS
notes: Member of group m19
Take B3: the “EC50 (read off the curve)” value in experiment [2] is roughly 3 nM.

B4: XENP39233 PSMA (A10v2) x CD28 (96 nM) (bispecific antibody)
heavy: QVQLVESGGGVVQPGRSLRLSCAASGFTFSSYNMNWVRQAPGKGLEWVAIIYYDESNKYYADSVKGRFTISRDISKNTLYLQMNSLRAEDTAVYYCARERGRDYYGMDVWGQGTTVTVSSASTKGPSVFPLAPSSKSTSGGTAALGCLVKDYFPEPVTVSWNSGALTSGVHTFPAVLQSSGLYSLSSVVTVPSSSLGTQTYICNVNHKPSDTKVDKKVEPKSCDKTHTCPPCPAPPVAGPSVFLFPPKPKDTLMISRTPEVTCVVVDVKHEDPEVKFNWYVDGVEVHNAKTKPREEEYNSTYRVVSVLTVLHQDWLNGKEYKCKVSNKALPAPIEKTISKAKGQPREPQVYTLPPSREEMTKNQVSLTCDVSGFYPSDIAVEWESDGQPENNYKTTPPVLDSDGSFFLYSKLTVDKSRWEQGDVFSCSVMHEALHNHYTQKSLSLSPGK
scFv-Fc: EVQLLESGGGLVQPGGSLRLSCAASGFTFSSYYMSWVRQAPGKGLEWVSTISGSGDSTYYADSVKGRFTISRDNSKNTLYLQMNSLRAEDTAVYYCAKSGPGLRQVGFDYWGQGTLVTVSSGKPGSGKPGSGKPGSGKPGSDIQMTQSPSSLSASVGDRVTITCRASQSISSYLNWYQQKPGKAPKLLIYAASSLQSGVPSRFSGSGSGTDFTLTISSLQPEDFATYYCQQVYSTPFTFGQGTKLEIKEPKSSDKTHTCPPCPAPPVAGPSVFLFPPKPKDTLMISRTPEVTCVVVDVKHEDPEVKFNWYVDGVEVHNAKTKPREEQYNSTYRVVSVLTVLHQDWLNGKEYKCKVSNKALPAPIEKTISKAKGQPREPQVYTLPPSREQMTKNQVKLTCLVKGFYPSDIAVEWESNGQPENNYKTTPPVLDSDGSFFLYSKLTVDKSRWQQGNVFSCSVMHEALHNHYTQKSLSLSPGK
light: SYELMQPPSVSVSPGQTARITCSGDALPKQYAYWYQQKPGQAPVLVIYKDSERPSGIPVRFSGSSSGTTVTLTITGVQAEDEADYYCQSADSSGTYVFGTGTKVTVLGQPKAAPSVTLFPPSSEELQANKATLVCLISDFYPGAVTVAWKADSSPVKAGVETTTPSKQSNNKYAASSYLSLTPEQWKSHRSYSCQVTHEGSTVEKTVAPTECS
notes: Member of group m19
For B4, the 50% effective concentration (EC50 (read off the curve)) in experiment [2] is roughly 2 nM.

B5: C28PB318.002 PSMA (A10v2) x CD28 (96 nM) (bispecific antibody)
scFv-Fc: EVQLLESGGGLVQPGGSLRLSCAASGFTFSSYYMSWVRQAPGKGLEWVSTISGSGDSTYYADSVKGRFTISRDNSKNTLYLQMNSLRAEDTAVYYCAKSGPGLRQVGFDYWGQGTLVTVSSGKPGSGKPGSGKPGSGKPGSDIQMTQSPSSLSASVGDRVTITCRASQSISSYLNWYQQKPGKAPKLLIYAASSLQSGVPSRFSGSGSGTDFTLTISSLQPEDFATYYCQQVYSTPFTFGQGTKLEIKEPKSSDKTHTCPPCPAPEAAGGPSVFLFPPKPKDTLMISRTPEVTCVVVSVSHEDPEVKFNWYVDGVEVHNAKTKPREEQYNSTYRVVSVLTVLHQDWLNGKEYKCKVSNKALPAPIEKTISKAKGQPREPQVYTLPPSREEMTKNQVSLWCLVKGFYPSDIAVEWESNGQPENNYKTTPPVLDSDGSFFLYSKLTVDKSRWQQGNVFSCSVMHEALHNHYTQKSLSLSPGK
heavy: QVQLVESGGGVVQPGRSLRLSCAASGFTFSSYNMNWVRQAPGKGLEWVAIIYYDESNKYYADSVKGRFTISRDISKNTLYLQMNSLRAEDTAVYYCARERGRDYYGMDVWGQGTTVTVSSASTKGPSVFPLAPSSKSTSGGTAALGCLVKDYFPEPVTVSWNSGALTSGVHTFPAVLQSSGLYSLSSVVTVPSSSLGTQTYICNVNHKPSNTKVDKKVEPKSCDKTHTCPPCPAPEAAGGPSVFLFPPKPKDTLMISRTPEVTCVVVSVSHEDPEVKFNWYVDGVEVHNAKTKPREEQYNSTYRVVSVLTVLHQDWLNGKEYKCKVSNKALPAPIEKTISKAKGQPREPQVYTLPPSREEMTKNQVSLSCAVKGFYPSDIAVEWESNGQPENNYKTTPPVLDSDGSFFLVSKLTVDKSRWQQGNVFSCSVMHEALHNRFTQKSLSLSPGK
light: SYELMQPPSVSVSPGQTARITCSGDALPKQYAYWYQQKPGQAPVLVIYKDSERPSGIPVRFSGSSSGTTVTLTITGVQAEDEADYYCQSADSSGTYVFGTGTKVTVLGQPKAAPSVTLFPPSSEELQANKATLVCLISDFYPGAVTVAWKADSSPVKAGVETTTPSKQSNNKYAASSYLSLTPEQWKSHRSYSCQVTHEGSTVEKTVAPTECS
For B5, in experiment [2], the “EC50 (read off the curve)” value was roughly 2 nM.

B6: C28PB330.002 PSMA (A10v2) x CD28 (180 nM) (bispecific antibody)
first monomer: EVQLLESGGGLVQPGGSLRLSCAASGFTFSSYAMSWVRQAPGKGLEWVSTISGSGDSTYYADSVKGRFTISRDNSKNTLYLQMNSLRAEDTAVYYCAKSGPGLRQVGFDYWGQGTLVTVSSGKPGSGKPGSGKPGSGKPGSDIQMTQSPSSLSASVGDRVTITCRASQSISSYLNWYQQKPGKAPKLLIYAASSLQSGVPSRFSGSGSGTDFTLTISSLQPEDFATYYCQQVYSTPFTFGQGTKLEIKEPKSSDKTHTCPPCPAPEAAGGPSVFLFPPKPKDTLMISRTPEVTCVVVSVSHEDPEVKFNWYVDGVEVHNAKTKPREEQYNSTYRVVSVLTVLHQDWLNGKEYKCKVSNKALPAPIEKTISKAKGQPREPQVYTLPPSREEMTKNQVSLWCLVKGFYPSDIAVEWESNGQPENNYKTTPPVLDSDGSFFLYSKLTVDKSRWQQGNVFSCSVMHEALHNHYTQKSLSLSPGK
second monomer: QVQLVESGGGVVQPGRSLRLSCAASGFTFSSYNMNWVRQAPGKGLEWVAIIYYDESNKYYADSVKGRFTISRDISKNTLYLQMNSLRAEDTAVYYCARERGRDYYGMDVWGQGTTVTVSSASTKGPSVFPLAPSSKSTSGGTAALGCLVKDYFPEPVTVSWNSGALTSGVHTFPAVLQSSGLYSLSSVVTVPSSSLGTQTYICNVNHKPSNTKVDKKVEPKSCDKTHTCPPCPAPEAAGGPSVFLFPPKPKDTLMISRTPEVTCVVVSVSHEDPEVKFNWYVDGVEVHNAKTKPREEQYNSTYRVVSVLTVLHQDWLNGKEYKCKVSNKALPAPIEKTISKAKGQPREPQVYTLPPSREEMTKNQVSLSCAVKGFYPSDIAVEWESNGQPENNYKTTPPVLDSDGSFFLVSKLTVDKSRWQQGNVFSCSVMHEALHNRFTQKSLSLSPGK
light chain: SYELMQPPSVSVSPGQTARITCSGDALPKQYAYWYQQKPGQAPVLVIYKDSERPSGIPVRFSGSSSGTTVTLTITGVQAEDEADYYCQSADSSGTYVFGTGTKVTVLGQPKAAPSVTLFPPSSEELQANKATLVCLISDFYPGAVTVAWKADSSPVKAGVETTTPSKQSNNKYAASSYLSLTPEQWKSHRSYSCQVTHEGSTVEKTVAPTECS
For B6, the “EC50 (read off the curve)” value in experiment [2] was roughly 3 nM.

B7: C28PB294.002 PSMA (A10v2) x CD28 (37 nM) (bispecific antibody)
scFv-Fc: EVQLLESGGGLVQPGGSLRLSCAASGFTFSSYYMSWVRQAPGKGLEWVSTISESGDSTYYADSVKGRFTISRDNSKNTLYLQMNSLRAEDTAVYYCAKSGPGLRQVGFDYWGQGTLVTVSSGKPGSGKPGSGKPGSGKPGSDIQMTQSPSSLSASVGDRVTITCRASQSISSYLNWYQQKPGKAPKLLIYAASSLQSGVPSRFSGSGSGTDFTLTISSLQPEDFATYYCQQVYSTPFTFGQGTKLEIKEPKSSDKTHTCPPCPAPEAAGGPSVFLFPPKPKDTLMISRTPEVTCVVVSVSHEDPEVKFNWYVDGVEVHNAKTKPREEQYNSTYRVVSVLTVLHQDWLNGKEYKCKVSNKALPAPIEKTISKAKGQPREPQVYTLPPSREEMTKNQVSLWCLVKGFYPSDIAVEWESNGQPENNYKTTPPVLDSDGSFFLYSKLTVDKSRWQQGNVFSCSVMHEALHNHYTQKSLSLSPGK
heavy: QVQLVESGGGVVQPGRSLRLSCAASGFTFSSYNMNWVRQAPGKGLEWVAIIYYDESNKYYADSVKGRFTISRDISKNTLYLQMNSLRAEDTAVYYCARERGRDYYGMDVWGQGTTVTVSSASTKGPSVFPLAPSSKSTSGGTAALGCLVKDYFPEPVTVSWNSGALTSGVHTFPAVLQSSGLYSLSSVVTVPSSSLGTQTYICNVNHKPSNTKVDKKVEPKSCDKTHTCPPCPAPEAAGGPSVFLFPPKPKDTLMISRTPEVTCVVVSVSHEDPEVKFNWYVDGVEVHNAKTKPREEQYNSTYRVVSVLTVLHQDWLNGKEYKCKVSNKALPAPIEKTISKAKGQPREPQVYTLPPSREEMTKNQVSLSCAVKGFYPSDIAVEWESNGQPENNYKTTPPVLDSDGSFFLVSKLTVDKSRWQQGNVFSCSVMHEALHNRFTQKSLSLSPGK
light: SYELMQPPSVSVSPGQTARITCSGDALPKQYAYWYQQKPGQAPVLVIYKDSERPSGIPVRFSGSSSGTTVTLTITGVQAEDEADYYCQSADSSGTYVFGTGTKVTVLGQPKAAPSVTLFPPSSEELQANKATLVCLISDFYPGAVTVAWKADSSPVKAGVETTTPSKQSNNKYAASSYLSLTPEQWKSHRSYSCQVTHEGSTVEKTVAPTECS
With B7, in experiment [2], the “EC50 (read off the curve)” value was roughly 3 nM.

B8: PSMA x CD28 bsAb with D01v2 PSMA binding domain and 1A7_H1_L1.71 CD28 binding domain (Platform X) (bispecific antibody)
heavy: EVQLVESGGDLVQPGGSLRLSCAASGFTFNNYNMNWVRQAPGKGLEWVSHISTSSSNKYYADSVKGRFSISRDIAKNSMYLQMNSLRDEDTAVYYCAREGVGADYGDYYYYGMDVWGQGTTVTVSSASTKGPSVFPLAPSSKSTSGGTAALGCLVKDYFPEPVTVSWNSGALTSGVHTFPAVLQSSGLYSLSSVVTVPSSSLGTQTYICNVNHKPSDTKVDKKVEPKSCDKTHTCPPCPAPPVAGPSVFLFPPKPKDTLMISRTPEVTCVVVDVKHEDPEVKFNWYVDGVEVHNAKTKPREEEYNSTYRVVSVLTVLHQDWLNGKEYKCKVSNKALPAPIEKTISKAKGQPREPQVYTLPPSREEMTKNQVSLTCDVSGFYPSDIAVEWESDGQPENNYKTTPPVLDSDGSFFLYSKLTVDKSRWEQGDVFSCSVMHEALHNHYTQKSLSLSPGK
scFv-Fc: not shown
light: QSVLTQPASVSGSPGQSITISCTGTSSDVGGYNYVSWYQQHPGKAPKLMIYEVSNRPSGVSNRFSGSKSGNTASLTISGLQAEDEADYYCSSYTSSYTYVFGTGTKLTVLGQPKAAPSVTLFPPSSEELQANKATLVCLISDFYPGAVTVAWKADSSPVKAGVETTTPSKQSNNKYAASSYLSLTPEQWKSHRSYSCQVTHEGSTVEKTVAPTECS
notes: D01v2 is D01 with the degradation liabilities removed
B8: in experiment [1], the binding result was “binds”.

B9: PSMA x CD28 bsAb with D01 PSMA binding domain and 1A7_H1_L1.71 CD28 binding domain (Platform X) (bispecific antibody)
heavy: EVQLVESGGDLVQPGGSLRLSCAASGFTFNNYNMNWVRQAPGKGLEWVSHISTSSSNKYYADSVKGRFSISRDIAKNSMYLQMNSLRDEDTAVYYCARDGVGADYGDYYYYGMDVWGQGTTVTVSSASTKGPSVFPLAPSSKSTSGGTAALGCLVKDYFPEPVTVSWNSGALTSGVHTFPAVLQSSGLYSLSSVVTVPSSSLGTQTYICNVNHKPSDTKVDKKVEPKSCDKTHTCPPCPAPPVAGPSVFLFPPKPKDTLMISRTPEVTCVVVDVKHEDPEVKFNWYVDGVEVHNAKTKPREEEYNSTYRVVSVLTVLHQDWLNGKEYKCKVSNKALPAPIEKTISKAKGQPREPQVYTLPPSREEMTKNQVSLTCDVSGFYPSDIAVEWESDGQPENNYKTTPPVLDSDGSFFLYSKLTVDKSRWEQGDVFSCSVMHEALHNHYTQKSLSLSPGK
scFv-Fc: not shown
light: QSVLTQPASVSGSPGQSITISCTGTSSDVGGYNYVSWYQQHPGKAPKLMIYEVSNRPSGVSNRFSGSKSGNTASLTISGLQAEDEADYYCSSYTSSYTYVFGTGTKLTVLGQPKAAPSVTLFPPSSEELQANKATLVCLISDFYPGAVTVAWKADSSPVKAGVETTTPSKQSNNKYAASSYLSLTPEQWKSHRSYSCQVTHEGSTVEKTVAPTECS
As to B9, the binding result in experiment [1] is listed as “binds”.

B10: XENP38934 PSMA (F02) x CD28 (180nM) (bispecific antibody)
heavy: EVQLLESGPGLVKPSETLSLTCTVSGGSIISYYWSWIRQPAGKGLEWIGRIYSSGSTNYNPSLKSRVTMSVDTSKNQFSLKLSSVTAADTAVYYCAKVGVWPGAFDIWGQGTMVTVSSASTKGPSVFPLAPSSKSTSGGTAALGCLVKDYFPEPVTVSWNSGALTSGVHTFPAVLQSSGLYSLSSVVTVPSSSLGTQTYICNVNHKPSDTKVDKKVEPKSCDKTHTCPPCPAPPVAGPSVFLFPPKPKDTLMISRTPEVTCVVVDVKHEDPEVKFNWYVDGVEVHNAKTKPREEEYNSTYRVVSVLTVLHQDWLNGKEYKCKVSNKALPAPIEKTISKAKGQPREPQVYTLPPSREEMTKNQVSLTCDVSGFYPSDIAVEWESDGQPENNYKTTPPVLDSDGSFFLYSKLTVDKSRWEQGDVFSCSVMHEALHNHYTQKSLSLSPGK
scFv-Fc: not shown
light: not shown
notes: copies: 1 + 1 + 1
As for B10, the binding result in experiment [1] is “binds”.

B11: XENP37902 (bispecific antibody)
heavy: EVQLVQSGAEVKKPGASVKVSCKTSGYTFTEYTIHWVRQAPGQSLEWMGNINPNNGGTTYNQKFQGRVTITVDKSTSTAYMELSSLRSEDTAVYYCAAGWNFDYWGQGTLVTVSSASTKGPSVFPLAPSSKSTSGGTAALGCLVKDYFPEPVTVSWNSGALTSGVHTFPAVLQSSGLYSLSSVVTVPSSSLGTQTYICNVNHKPSDTKVDKKVEPKSCDKTHTCPPCPAPPVAGPSVFLFPPKPKDTLMISRTPEVTCVVVDVKHEDPEVKFNWYVDGVEVHNAKTKPREEEYNSTYRVVSVLTVLHQDWLNGKEYKCKVSNKALPAPIEKTISKAKGQPREPQVYTLPPSREEMTKNQVSLTCDVSGFYPSDIAVEWESDGQPENNYKTTPPVLDSDGSFFLYSKLTVDKSRWEQGDVFSCSVMHEALHNHYTQKSLSLSPGK
scFv-Fc: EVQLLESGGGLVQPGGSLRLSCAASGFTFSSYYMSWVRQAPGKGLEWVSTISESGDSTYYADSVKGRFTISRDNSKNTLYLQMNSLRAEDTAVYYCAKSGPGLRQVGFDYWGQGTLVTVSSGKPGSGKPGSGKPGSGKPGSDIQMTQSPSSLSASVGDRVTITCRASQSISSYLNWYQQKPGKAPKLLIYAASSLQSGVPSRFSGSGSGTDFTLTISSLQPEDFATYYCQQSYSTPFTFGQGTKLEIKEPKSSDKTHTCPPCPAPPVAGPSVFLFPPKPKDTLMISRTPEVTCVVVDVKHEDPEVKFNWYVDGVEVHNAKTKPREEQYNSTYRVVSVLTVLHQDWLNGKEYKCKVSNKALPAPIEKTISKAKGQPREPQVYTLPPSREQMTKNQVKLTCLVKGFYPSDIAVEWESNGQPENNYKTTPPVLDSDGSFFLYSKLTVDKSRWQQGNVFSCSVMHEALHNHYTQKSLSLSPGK
light: DIVMTQSPDSLAVSLGERATLSCRASQDVGTAVDWYQQKPDQSPKLLIYWASTRHTGVPDRFTGSGSGTDFTLTISSLQAEDVAVYFCQQYNSYPLTFGAGTKVEIKRTVAAPSVFIFPPSDEQLKSGTASVVCLLNNFYPREAKVQWKVDNALQSGNSQESVTEQDSKDSTYSLSSTLTLSKADYEKHKVYACEVTHQGLSSPVTKSFNRGEC
notes: 1+1 Fab-scFv-Fc format; also called prototype PSMA x CD28 bsAb; 1A7_H1.14_L1
With B11, binding in experiment [3] was put at a Kd of 230 nM.

B12: XENP37903 (bispecific antibody)
heavy: EVQLVQSGAEVKKPGASVKVSCKTSGYTFTEYTIHWVRQAPGQSLEWMGNINPNNGGTTYNQKFQGRVTITVDKSTSTAYMELSSLRSEDTAVYYCAAGWNFDYWGQGTLVTVSSASTKGPSVFPLAPSSKSTSGGTAALGCLVKDYFPEPVTVSWNSGALTSGVHTFPAVLQSSGLYSLSSVVTVPSSSLGTQTYICNVNHKPSDTKVDKKVEPKSCDKTHTCPPCPAPPVAGPSVFLFPPKPKDTLMISRTPEVTCVVVDVKHEDPEVKFNWYVDGVEVHNAKTKPREEEYNSTYRVVSVLTVLHQDWLNGKEYKCKVSNKALPAPIEKTISKAKGQPREPQVYTLPPSREEMTKNQVSLTCDVSGFYPSDIAVEWESDGQPENNYKTTPPVLDSDGSFFLYSKLTVDKSRWEQGDVFSCSVMHEALHNHYTQKSLSLSPGK
scFv-Fc: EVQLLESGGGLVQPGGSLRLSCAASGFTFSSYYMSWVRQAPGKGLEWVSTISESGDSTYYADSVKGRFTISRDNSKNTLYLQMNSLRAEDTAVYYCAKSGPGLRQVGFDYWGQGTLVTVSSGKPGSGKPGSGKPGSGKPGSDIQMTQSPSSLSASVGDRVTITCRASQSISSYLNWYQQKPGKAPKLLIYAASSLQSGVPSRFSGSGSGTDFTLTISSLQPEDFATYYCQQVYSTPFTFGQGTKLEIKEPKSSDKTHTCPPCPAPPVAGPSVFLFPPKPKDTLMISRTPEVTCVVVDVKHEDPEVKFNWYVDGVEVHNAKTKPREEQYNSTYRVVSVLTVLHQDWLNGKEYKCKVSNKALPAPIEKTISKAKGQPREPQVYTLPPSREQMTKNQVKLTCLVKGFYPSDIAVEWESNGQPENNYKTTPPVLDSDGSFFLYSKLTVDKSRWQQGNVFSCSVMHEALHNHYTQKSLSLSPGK
light: DIVMTQSPDSLAVSLGERATLSCRASQDVGTAVDWYQQKPDQSPKLLIYWASTRHTGVPDRFTGSGSGTDFTLTISSLQAEDVAVYFCQQYNSYPLTFGAGTKVEIKRTVAAPSVFIFPPSDEQLKSGTASVVCLLNNFYPREAKVQWKVDNALQSGNSQESVTEQDSKDSTYSLSSTLTLSKADYEKHKVYACEVTHQGLSSPVTKSFNRGEC
notes: 1+1 Fab-scFv-Fc format; also called prototype PSMA x CD28 bsAb; 1A7_H1.14_L1.71
With B12, the affinity in experiment [3], expressed as Kd, was 37 nM.
